The values below come from patent EP4365197A1 (Innobation Bio Co., Ltd., dated 2024).

Positions count from the first letter of the chain named.

The labels stand for the following.
B1: Hu3A5 (V1) antibody (antibody, V domains shown)
VH: EVQLVQSGAEVKKPGASVKVSCKASGYTFTSYWMHWMRQAPGQGLEWIGVIDPSDSYTSYNQKFQGRVTLTVDTSTSTAYMELSSLRSEDTAVYYCARGGKRAMDYWGQGTTVTVSS
VL: DVVMTQSPLSLPVTLGQPASISCRSSQSLVHSNGNTYLHWFQQRPGQSPRLLIYKVSNRFSGVPDRFSGSGSGTDFTLKISRVEAEDVGVYFCSQSTHVPFTFGGGTKLEIK
notes: Humanized 3A5
B2: Hu3A5 (V3) antibody (antibody, V domains shown)
VH: B1 VH
VL: DVVMTQSPDSLAVSLGERATINCKSSQSLVHSNGNTYLHWYQQKPGQPPKLLIYKVSNRFSGVPDRFSGSGSGTDFTLTISSLQAEDVAVYFCSQSTHVPFTFGGGTKLEIK
notes: Humanized 3A5
B3: Hu3A5 (V9) antibody (antibody, V domains shown)
VH: EVQLVQSGSELKKPGASVKVSCKASGYTFTSYWMHWMRQAPGQGLEWIGVIDPSDSYTSYNQGFTGRFVLSVDTSVSTAYLQISSLKAEDTAVYYCARGGKRAMDYWGQGTTVTVSS
VL: B1 VL
notes: Humanized 3A5
B4: Hu3A5 (V13) antibody (antibody, V domains shown)
VH: B3 VH with E1Q, H35N, M37V, I48M, L70F
VL: B1 VL
notes: Humanized 3A5
B5: Hu3A5 (V14) antibody (antibody, V domains shown)
VH: B3 VH with E1Q, H35N, M37V, I48M, L70F
VL: B1 VL with F92Y
notes: Humanized 3A5
B6: Hu3A5 (V6) antibody (antibody, V domains shown)
VH: B1 VH with E1Q, M37V, I48M, L70M
VL: B1 VL with F92Y
notes: Humanized 3A5
B7: Hu3A5 (V4) antibody (antibody, V domains shown)
VH: B1 VH
VL: B2 VL with F92Y
notes: Humanized 3A5
B8: Hu3A5 (V8) antibody (antibody, V domains shown)
VH: B1 VH with E1Q, M37V, I48M, L70M
VL: B2 VL with F92Y
notes: Humanized 3A5
B9: Hu3A5 (V5) antibody (antibody, V domains shown)
VH: B1 VH with E1Q, M37V, I48M, L70M
VL: B1 VL
notes: Humanized 3A5
B10: Hu3A5 (V2) antibody (antibody, V domains shown)
VH: B1 VH
VL: B1 VL with F92Y
notes: Humanized 3A5
B11: Hu3A5 (V7) antibody (antibody, V domains shown)
VH: B1 VH with E1Q, M37V, I48M, L70M
VL: B2 VL
notes: Humanized 3A5
B12: Hu3A5 (V11) antibody (antibody, V domains shown)
VH: B3 VH
VL: B2 VL
notes: Humanized 3A5
B13: Hu3A5 (V15) antibody (antibody, V domains shown)
VH: B3 VH with E1Q, H35N, M37V, I48M, L70F
VL: B2 VL
notes: Humanized 3A5
B14: Hu3A5 (V16) antibody (antibody, V domains shown)
VH: B3 VH with E1Q, H35N, M37V, I48M, L70F
VL: B2 VL with F92Y
notes: Humanized 3A5
B15: Hu3A5 (V12) antibody (antibody, V domains shown)
VH: B3 VH
VL: B2 VL with F92Y
notes: Humanized 3A5
B16: Hu3A5 (V10) antibody (antibody, V domains shown)
VH: B3 VH
VL: B1 VL with F92Y

T1 sequence (Q08722 19-323 limits assumed): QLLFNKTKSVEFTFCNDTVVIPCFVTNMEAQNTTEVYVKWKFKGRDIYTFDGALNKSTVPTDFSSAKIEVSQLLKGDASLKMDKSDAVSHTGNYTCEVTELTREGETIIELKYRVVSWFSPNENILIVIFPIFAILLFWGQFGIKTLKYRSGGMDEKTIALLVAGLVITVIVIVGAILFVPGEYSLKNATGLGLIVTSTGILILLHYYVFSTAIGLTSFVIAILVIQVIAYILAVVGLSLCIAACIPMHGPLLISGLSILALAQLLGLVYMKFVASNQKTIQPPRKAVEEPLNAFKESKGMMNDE

One experiment has as its target T1, CD47 on the CD47-overexpressing breast cancer cell line MCF-7 (UniProt Q08722 19-323, limits assumed).
T1 construct: whole, on cells; Endogenous CD47 on MCF-7 cells; The positive control used on these cells is an anti-human CD47 antibody; also called CD47 overexpressing tumor cells (MCF-7); MCF-7 cells expressing CD47
Kind of experiment: flow cytometry on MCF-7 cells, 1 µg antibody. A general note: A flow cytometer gives signals particle by particle.
Turning to B1, the binding result is listed as “binds”. On the same count and under the same terms, in the case of B2 it was “binds”; in that of B3, “binds”. Still for that read-out and setting: in the case of B4 it was “binds”. For the molecule B5, the binding result is “binds”. Still for that read-out and setting: in the case of B6 it was “binds”. Still for that read-out and setting: in the case of B7 it was “binds”; in that of B8, “binds”; in that of B9, “binds”. On the same count and under the same terms, in the case of B10 it was “binds”. B11: the binding result is reported as “binds”. The same measure, in the same setting: the entry for B12 is “binds”. On the same count and under the same terms, in the case of B13 it was “binds”; in that of B14, “binds”. For the molecule B15, the binding result is “binds”.

In the next experiment the target is CD47 protein (Acrobiosystems, cat#CD7-HA2E9) (UniProt Q08722). As to the kind of experiment: ELISA, CD47 protein coated 100 ng/well, 0.8 µg antibody per well. A general note: ELISA stands for enzyme-linked immunosorbent assay.
Sequence of CD47 protein (Acrobiosystems, cat#CD7-HA2E9) (Q08722 19-139 limits assumed): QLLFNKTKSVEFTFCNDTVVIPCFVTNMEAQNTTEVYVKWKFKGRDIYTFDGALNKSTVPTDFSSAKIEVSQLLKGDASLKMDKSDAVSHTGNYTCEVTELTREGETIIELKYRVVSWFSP
As for B1, the OD450 measurements amounted to 2.58 OD450. The molecule B16 displayed an OD450 measurements of 2.81 OD450.

As to B2, the OD450 measurements was 2.54 OD450.

Molecule B3 came in with an OD450 measurements of 2.65 OD450.

In turn, B4 had an OD450 measurements of 0.0966 OD450. The same measure, in the same setting: in the case of B5 it was 0.147 OD450; in that of B6, 2.62 OD450; in that of B7, 2.74 OD450. The same measure, in the same setting: in the case of B8 it was 2.45 OD450; in that of B9, 2.57 OD450; in that of B10, 2.69 OD450.

Regarding B11, the OD450 measurements was 2.67 OD450.

B12 gave an OD450 measurements of 2.81 OD450. The same measure, in the same setting: in the case of B13 it was 0.111 OD450. On the same count and under the same terms, the figure for B14 is 0.106 OD450. Still for that read-out and setting: in the case of B15 it was 2.85 OD450.

The target of the next experiment is CD47 on the CD47-overexpressing breast cancer cell line MCF-7 (UniProt Q08722). Kind of experiment: flow cytometry on MCF-7 cells, secondary antibody alone (background control).
Sequence of CD47 on the CD47-overexpressing breast cancer cell line MCF-7 (UniProt Q08722) (Q08722 19-323 limits assumed): as the sequence (Q08722 19-323 limits assumed) above
“PE-conjugated goat anti-mouse IgG antibody (Biolegend Inc., cat# 405307)” displayed a Mean (fluorescence) of 80 and a Median (fluorescence) of 73.9.
